Results published in patent US20140105889A1 (published 2014).

Tests used:
[1] = target: T1, mouse FcRn (mouse, UniProt Q61559 22-297, limits assumed); assay: SPR (Biacore), mouse FcRn, pH 7.0
T1 construct: Soluble analyte in Biacore; also called mFcRn
T1 sequence (looked up) 1: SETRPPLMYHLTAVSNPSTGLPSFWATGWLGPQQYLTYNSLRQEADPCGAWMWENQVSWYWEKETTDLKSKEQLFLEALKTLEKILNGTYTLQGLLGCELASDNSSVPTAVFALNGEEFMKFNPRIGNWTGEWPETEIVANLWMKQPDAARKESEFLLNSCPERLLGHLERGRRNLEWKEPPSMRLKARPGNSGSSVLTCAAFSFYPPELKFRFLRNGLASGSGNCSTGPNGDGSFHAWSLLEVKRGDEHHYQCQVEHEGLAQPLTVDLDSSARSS
T1 sequence (looked up) 2: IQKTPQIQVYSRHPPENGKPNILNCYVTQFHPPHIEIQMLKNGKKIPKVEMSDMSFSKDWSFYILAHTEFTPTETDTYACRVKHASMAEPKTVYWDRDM
Protocol: The binding between antibody and mouse FcRn was kinetically analyzed using Biacore T100 (GE Healthcare). An appropriate amount of protein L (ACTIGEN) was immobilized onto Sensor chip CM4 (GE Healthcare) by the amino coupling method, and the chip was allowed to capture an antibody of interest. Then, diluted FcRn solutions and running buffer (as a reference solution) were injected to allow mouse FcRn to interact with the antibody captured on the sensor chip. The running buffer used contains 50 mmol/l sodium phosphate, 150 mmol/l NaCl, and 0.05% (w/v) Tween20 (pH 7.4). FcRn was diluted using each buffer. The sensorchip was regenerated using 10 mmol/l glycine-HCl (pH 1.5). Assays were carried out exclusively at 25 degrees C. The association rate constant ka (1/Ms) and dissociation rate constant kd (1/s), both of which are kinetic parameters, were calculated based on the sensorgrams obtained in the assays, and the KD (M) of each antibody for mouse FcRn was determined from these values. Each parameter was calculated using Biacore T100 Evaluation Software (GE Healthcare).

[2] = target: T2, mouse FcγRIV (mouse); assay: SPR (Biacore), antibody captured on Protein L, mouse FcγR as analyte, pH 7.4, 25 C
T2 construct: Bought soluble receptor; also called mFcgRIV; mFcgR IV
T2 sequence (A0A0B4J1G0 21-203): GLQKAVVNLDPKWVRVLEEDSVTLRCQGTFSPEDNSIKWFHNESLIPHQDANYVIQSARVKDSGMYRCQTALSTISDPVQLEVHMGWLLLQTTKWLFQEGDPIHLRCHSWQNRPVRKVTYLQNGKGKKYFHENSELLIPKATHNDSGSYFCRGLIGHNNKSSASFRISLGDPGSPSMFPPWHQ
Protocol: Binding activity between the antibodies and mouse FcγRI, FcγRII, FcγRIII and FcγRIV (R&D Systems, Sin θ Biological) (hereinafter referred to as mouse FcγRs) was evaluated using the Biacore T100 or T200 (GE Healthcare). The antibodies being tested were captured by Protein L (ACTIGEN) that was immobilized in suitable amounts on the CM4 Sensor Chip (GE Healthcare) by amine coupling. Next, the diluted mouse FcγRs and a running buffer used as a blank were injected to allow interaction with the antibody captured on the sensor chip. A buffer consisting of 20 mmol/L ACES, 150 mmol/L NaCl and 0.05% (w/v) Tween 20 (pH 7.4) was used for the running buffer, and this buffer was also used to dilute the mouse FcγRs. 10 mmol/L glycine-HCl (pH 1.5) was used to regenerate the sensor chip. All measurements were carried out at 25° C.

binding result [1]: no binding | BINDING AMOUNT (RU) [2]: -3.5 RU
B1: antibody with mPM1H-mIgG1 heavy chain and L(WT)-CK light chain (antibody)
heavy: DVQLQESGPVLVKPSQSLSLTCTVTGYSITSDHAWSWIRQFPGNKLEWMGYISYSGITTYNPSLKSRISITRDTSKNQFFLQLNSVTTGDTSTYYCARSLARTTAMDYWGQGTSVTVSSAKTTPPSVYPLAPGSAAQTNSMVTLGCLVKGYFPEPVTVTWNSGSLSSGVHTFPAVLQSDLYTLSSSVTVPSSTWPSETVTCNVAHPASSTKVDKKIVPRDCGCKPCICTVPEVSSVFIFPPKPKDVLTITLTPKVTCVVVDISKDDPEVQFSWFVDDVEVHTAQTQPREEQFNSTFRSVSELPIMHQDWLNGKEFKCRVNSAAFPAPIEKTISKTKGRPKAPQVYTIPPPKEQMAKDKVSLTCMITDFFPEDITVEWQWNGQPAENYKNTQPIMDTDGSYFVYSKLNVQKSNWEAGNTFTCSVLHEGLHNHHTEKSLSHSPGK
light: not shown
notes: Natural mouse IgG1 constant region; In the Biacore assays the heavy chain was paired with L(WT)-CK; also called mPM1-mIgG1; copies: 2 + 2
